{"source": "paper PMC2649756", "origin": "cited, not measured here", "molecular_target": "βI-spectrin 1898-2083 (Homo sapiens) (UniProt P11277)", "sequence (P11277 1898-2083)": "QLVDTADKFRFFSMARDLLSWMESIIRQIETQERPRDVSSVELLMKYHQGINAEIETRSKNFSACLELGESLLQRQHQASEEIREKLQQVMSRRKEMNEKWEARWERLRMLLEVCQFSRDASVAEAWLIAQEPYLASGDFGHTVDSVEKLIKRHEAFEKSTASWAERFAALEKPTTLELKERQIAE", "conditions": "cited from earlier work"}
{"substance": "αI-spectrin (from UniProt P02549)", "values": [{"measurement": "Kd", "value": 1, "unit": "µM"}]}
